Laboratory results from patent US20210246507A1.

Target: human C3b (human) (UniProt P01024)
Test: SPR (Biacore 3000), human C3b amine-coupled to CM5 chip, FHR-4 injected at 1 to 100 µg/ml, 1:1 Langmuir fit

UniProt P01024, sequence (P01024 23-667 limits assumed, chain 1 of 2): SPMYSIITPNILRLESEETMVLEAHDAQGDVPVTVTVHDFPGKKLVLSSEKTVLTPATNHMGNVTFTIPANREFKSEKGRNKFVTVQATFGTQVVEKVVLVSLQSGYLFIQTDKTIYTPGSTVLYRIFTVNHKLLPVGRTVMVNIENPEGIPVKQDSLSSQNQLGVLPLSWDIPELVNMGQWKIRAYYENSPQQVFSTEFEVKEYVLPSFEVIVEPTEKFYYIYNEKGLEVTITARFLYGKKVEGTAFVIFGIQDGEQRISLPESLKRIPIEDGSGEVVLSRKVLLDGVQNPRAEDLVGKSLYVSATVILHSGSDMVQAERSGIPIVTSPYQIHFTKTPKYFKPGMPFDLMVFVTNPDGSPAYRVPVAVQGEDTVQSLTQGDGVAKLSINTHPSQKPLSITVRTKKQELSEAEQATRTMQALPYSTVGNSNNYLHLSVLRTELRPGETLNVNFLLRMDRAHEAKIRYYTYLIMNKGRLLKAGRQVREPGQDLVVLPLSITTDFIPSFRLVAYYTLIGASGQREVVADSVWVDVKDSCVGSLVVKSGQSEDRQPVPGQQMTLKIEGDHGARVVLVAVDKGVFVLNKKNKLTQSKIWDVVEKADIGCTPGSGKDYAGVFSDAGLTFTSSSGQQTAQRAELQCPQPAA
UniProt P01024, sequence (P01024 749-1663 limits assumed, chain 2 of 2): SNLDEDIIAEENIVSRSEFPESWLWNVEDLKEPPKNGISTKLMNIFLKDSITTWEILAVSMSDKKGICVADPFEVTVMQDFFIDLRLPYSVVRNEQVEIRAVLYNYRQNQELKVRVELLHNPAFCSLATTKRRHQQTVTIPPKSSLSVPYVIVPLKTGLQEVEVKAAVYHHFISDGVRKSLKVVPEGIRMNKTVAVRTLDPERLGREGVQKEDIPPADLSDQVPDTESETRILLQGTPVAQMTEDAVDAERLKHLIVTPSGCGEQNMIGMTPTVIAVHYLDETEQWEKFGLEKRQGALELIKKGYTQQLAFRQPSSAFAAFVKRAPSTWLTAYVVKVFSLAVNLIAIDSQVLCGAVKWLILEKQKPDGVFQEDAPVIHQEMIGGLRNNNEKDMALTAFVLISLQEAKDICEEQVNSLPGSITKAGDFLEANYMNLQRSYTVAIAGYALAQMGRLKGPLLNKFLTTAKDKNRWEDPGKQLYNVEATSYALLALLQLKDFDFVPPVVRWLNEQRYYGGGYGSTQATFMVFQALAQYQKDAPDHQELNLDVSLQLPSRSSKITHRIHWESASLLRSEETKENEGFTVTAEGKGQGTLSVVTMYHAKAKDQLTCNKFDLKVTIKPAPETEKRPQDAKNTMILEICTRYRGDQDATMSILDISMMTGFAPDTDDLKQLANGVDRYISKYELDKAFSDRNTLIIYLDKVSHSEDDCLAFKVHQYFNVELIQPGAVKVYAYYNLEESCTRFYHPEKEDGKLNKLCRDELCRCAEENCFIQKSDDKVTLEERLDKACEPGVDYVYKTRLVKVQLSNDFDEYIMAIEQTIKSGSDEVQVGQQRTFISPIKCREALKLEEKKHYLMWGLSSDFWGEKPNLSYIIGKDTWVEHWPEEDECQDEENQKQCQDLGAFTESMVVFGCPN

Kd: 1100 nM
Substance: complement factor H-related protein 4 (FHR-4) (from UniProt Q92496 20-578)
